Target: AAB1/B2Fc
Experiment: SPR (BIAcore), Fab immobilized on Pioneer F1 chip, AAB1/B2Fc as analyte

- Kd: 0.332 nM
B1: Fab fragment F200 (Fab, V domains shown)
VH: QVQLKESGPGLVAPSQSLSITCTISGFSLTDYGVHWVRQPPGKGLEWLVVIWSDGSSTYNSALKSRMTIRKDNSKSQVFLIMNSLQTDDSAMYYCARHGTYYGMTTTGDALDYWGQGTSVTVSS
VL: QIVLTQSPAIMSASLGERVTMTCTASSSVSSNYLHWYQQKPGSAPNLWIYSTSNLASGVPARFSGSGSGTSYSLTISSMEAEDAATYYCHQYLRSPPTFGGGTKLEIKR

Reference: EP2351583A1
